Results published in PMC5021334.

How the values were obtained:
[1] = target: GST-DENV2 NS5 residues 865-900 (Dengue virus serotype 2); test: pull-down
[2] = target: GST-DENV3 NS5 residues 865-900 (Dengue virus serotype 3); test: pull-down
[3] = target: GST-DENV1 NS5 residues 865-899 (Dengue virus serotype 1); test: ELISA; solid-phase microtitre plate assay: GST-NLS from cell lysate captured on a glutathione coated plate and washed (PBS, 0.05% Tween-20); Impα in 2-fold serial dilutions in PBS from 12.5 μM, 1 h at RT; bound Impα detected with anti-6x His tag HRP antibody and TMB at 450 nm; one-site specific binding …
[4] = target: GST-DENV2 NS5 residues 865-900 (Dengue virus serotype 2); test: as above
[5] = target: GST-DENV3 NS5 residues 865-900 (Dengue virus serotype 3); test: as above
[6] = target: GST-DENV4 NS5 residues 865-901 (Dengue virus serotype 4); test: as above

mouse importin-α lacking the auto-inhibitory importin-β binding domain (Impα) (domain or fragment)
Kd [1]: 0.27 µM
Kd [2]: 0.37 µM
Kd [3]: 54 µM
Kd [4]: 4.53 µM
Kd [5]: 0.66 µM
Kd [6]: 18.5 µM
